B2: PRTN3 recombinant protein (enzyme, human, UniProt P24158 28-248, looked up)
chain: IVGGHEAQPHSRPYMASLQMRGNPGSHFCGGTLIHPSFVLTAAHCLRDIPQRLVNVVLGAHNVRTQEPTQQHFSVAQVFLNNYDAENKLNDVLLIQLSSPANLSASVATVQLPQQDQPVPHGTQCLAMGWGRVGAHDPPAQVLQELNVTVVTFFCRPHNICTFVPRRKAGICFGDSGGPLICDGIIQGIDSFVIWGCATRLFPDFFTRVALYVDWIRSTLR
notes: Proteinase 3 (PRTN3), human, bought recombinant protein; see the vendor's sheet for HY-P70509; also called hPRTN3; hPR3; source: bought: ACE (HY-P70509)

Test [1] addresses B2. The test can be described thus: SPR; Biacore K8, CM5 chip; 'target proteins' at 20 μg/mL in PBS pH 7.2 immobilised by amine coupling at 25 °C (which partner is not stated); 300 s dissociation; steady-state analysis. The settings on record: both partners purified. For orientation: Surface plasmon resonance follows binding to a sensor surface in real time, without labels.
The target in test [2] is T1, STAT3 recombinant protein (whole STAT3) (human, UniProt P40763 1-770).
T1 construct: STAT3, human, bought recombinant protein with the N-terminal domain; In the cleavage test STAT3 ran as a ~120 kDa monomer, which may mean a carrier tag (surmise); also called recombinant human STAT3; source: bought: one of Abcam (Ab43618), ACRO (ST3-H5149), ACE (HY-P70574)
The test is described as above. The settings on record: both partners purified.

B1: N-terminal domain of STAT3, recombinant (domain or fragment)
chain: MAQWNQLQQLDTRYLEQLHQLYSDSFPMELRQFLAPWIESQDWAYAASKESHATLVFHNLLGEIDQQYSRFLQESNVLYQHNLRRIKQFLQSRYLEKPMEIARIVARCLWEESRLLQTAATAAQQGGQAN
modifications: Limits of the purchased recombinant N-terminal domain are not given; 1-130 is taken from the paper's own shortest Flag-STAT3 truncation (1-130), which matches the usual N-terminal domain boundary. …
The term Kd denotes a measure of binding affinity in units of concentration. For B1, in test [1], the Kd is 6.91 µM.

Consider B2, for which the Kd in test [2] was 0.224 µM.

These data come from paper PMC11165011, “Proteinase 3 depletion attenuates leukemia by promoting myeloid differentiation” (Cell Death and Differentiation, 2024).
